Where no end group is shown, it is not given here. The star is where a group is joined. Biotin = O=C1N[C@H]2[C@H](CS[C@H]2CCCCC(=O)*)N1
T1: human XCR1-EGFP (human, UniProt P46094 1-333, EGFP fused to the receptor is not carried in the letters.)
T1 sequence: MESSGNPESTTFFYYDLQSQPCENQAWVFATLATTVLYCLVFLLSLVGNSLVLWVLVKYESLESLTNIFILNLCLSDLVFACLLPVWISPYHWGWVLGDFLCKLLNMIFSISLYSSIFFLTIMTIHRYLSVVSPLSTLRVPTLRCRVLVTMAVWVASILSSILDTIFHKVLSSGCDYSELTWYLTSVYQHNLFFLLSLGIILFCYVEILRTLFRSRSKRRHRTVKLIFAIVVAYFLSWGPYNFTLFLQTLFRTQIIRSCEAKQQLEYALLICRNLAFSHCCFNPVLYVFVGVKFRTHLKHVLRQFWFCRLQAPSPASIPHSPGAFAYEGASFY

T2: human XCR1 peptide 11-22 TFFYYDLQSQPC (human)
T2 peptide: Biotin-GSGSTFFYYDLQSQPC

T3: human XCR1 peptide 175-186 CDYSELTWYLTS (human)
T3 peptide: Biotin-GSGSCDYSELTWYLTS

T4: human XCR1 peptide 19-30 SQPCENQAWVFA (human)
T4 peptide: Biotin-GSGSSQPCENQAWVFA

T5: human XCR1 peptide 172-183 SSGCDYSELTWY (human)
T5 peptide: Biotin-GSGSSSGCDYSELTWY

B1: mouse anti-human XCR1 antibody (11H2) (antibody, IgG2a, V domains shown)
VH: EVQLQQSGPVLVKPGASVKMSCKASGYTFTDYYVNWVKQSHGASLEWIGVSNPKNGDKSYNQKFKGKATLTVDKSSSTAYMELNSLTSEDSAVYYCARGLYYAGTYGYFDVWGTGTTVTVSS
VL: DIQMTQATSSLSASLGDRVTISCRASQDISNYLNWYQQKPDGTVKLLIYYTSRLHSGVPSRFRGSGSGTDFSLTISNLEQEDIATYFCQQGKTLPRTLGGGTKLEIK
B2: humanized anti-human XCR1 antibody HK1L2 (antibody, human IgG2, kappa, V domains shown)
VH: QVQLVQSGAEVKKPGASVKVSCKASGYTFTSHNLHWVRQAPGQRLEWMGAIYPGNGNTAYNQKFKGRVTITRDTSASTAYMELSSLRSEDTAVYYCARWGSVVGDWYFDVWGQGTLVTVSS
VL: DVVMTQSPLSLPVTLGQPASISCRSSLGLVHRNGNTYLHWFQQRPGQSPRLLIYKVSHRFSGVPDRFSGSGSGTDFTLKISRVEAEDVGVYYCSQSTHVPWTFGQGTKVEIKR
B3: humanized anti-human XCR1 antibody HK5L5 (antibody, human IgG2, kappa, V domains shown)
VH: QVQLVQSGAEVKKPGASVKVSCKASGYTFTSHNLHWVRQAPGQGLEWMGAIYPGNGNTAYNQKFKGRVTMTRDTSTSTVYMELSSLRSEDTAVYYCARWGSVVGDWYFDVWGQGTLVTVSS
VL: DIVMTQTPLSLPVTPGQPASISCRSSLGLVHRNGNTYLHWYLQKPGQSPQLLIYKVSHRFSGVPDRFSGSGSGTDFTLKISRVEAEDVGVYYCSQSTHVPWTFGQGTKVEIKR
B4: mouse anti-human XCR1 antibody (2H6) (antibody, IgG2b, V domains shown)
VH: QAYLQQSGAELVRPGASVKMSCKASGYTFSSHNMHWIKQTLRQGLEWIGAIYPGKGNTSYNQKFKGKATLTVDKSSSTAYMQLSSLTSEDSAVYFCARWGSVVGDWYFDVWGTGTTVTVSS
VL: DVVVTQTPLSLPVSLGDQASISCRSSQSLVHSNGNTYLHWYLQKPGQSPKLLIYRVSNRFSGVPDRFSGSGLGRDFTLKISRVEAEDLGVYFCSQSTFVPWTFGGGTKLEIK
B5: mouse anti-human XCR1 antibody (5G7) (antibody, IgG2b, V domains shown)
VH: QAYLQQSGAELVRPGASVKMSCKASGYTFTSHNLHWVKQTPRQGLQWIGAIYPGNGNTAYNQKFKGKATLTVDKSSSTAYMQLSSLTSDDSAVYFCARWGSVVGDWYFDVWGTGTTVTVSS
VL: DVVMTQTPLSLPVTLGNQASIFCRSSLGLVHRNGNTYLHWYLQKPGQSPKLLIYKVSHRFSGVPDRFSGSGSGTDFTLKISRVEAEDLGVYFCSQSTHVPWTFGGGTKLEIK
notes: also called 5G7 Mab; parent antibody 5G7

Assays:
[1] = biological target: T1, human XCR1-EGFP; test: cell-based or functional assay
[2] = biological target: T2, human XCR1 peptide 11-22 TFFYYDLQSQPC; test: peptide ELISA on streptavidin plates
Method: (§1) Streptavidin-coated microtiter plates (Perkin Elmer) were coated with 50 μg/mL of peptide per well in a volume of 50 μL, and incubated at room temperature for 1 hour. The peptide solution was removed and PBS⁻ containing 4% Block-Ace was added to each well and incubated overnight at 4° C. Each well was washed three times with an ELISA wash buffer (0.02% Tween20 in PBS−). Anti-human XCR1 antibodies (2H6, 5G7, or 11H2) were added to each well in amount of 10 μg/mL, and incubated for 6 hours at room temperature. Each well was washed three times with the ELISA wash buffer. Horseradish peroxidase-conjugated donkey anti-mouse IgG antibody (Jackson, #715-035-150), diluted 1:5,000 in the ELISA wash buffer, was added to each well and incubated for 1 hour at room temperature. Each well was washed three times with the ELISA wash buffer. TMBZ (3,3′,5,5′ tetramethyl benzidine; Sigma) was added to each well and incubated at room temperature. The reaction was stopped with 2NH₂SO₄, and A₄₅₀ₙₘ was measured by Arvo plate reader (PerkinElmer).

[3] = biological target: T3, human XCR1 peptide 175-186 CDYSELTWYLTS; test: peptide ELISA on streptavidin plates
Method: as §1

[4] = biological target: T4, human XCR1 peptide 19-30 SQPCENQAWVFA; test: peptide ELISA on streptavidin plates
Method: as §1

[5] = biological target: T5, human XCR1 peptide 172-183 SSGCDYSELTWY; test: peptide ELISA on streptavidin plates
Method: as §1

[6] = biological target: T1, human XCR1-EGFP; test: cell-based or functional assay; remark: listed apart in the source
[7] = biological target: T1, human XCR1-EGFP; test: competitive ligand binding assay, FACS on human XCR1-EGFP BaF3 cells; competitor human XCL1-SSS-His(10) at 0.12 µg/mL
Method: The competitive ligand binding assay was performed according to the following procedure. Parent BaF3 cells and human XCR1-EGFP-expressing BaF3 cells were mixed at a 1:1 ratio, and suspended in a FACS buffer (1% FBS-containing PBS⁻ (Sigma)). The cells were blocked for 10 minutes on ice with a FACS buffer containing 10% rat serum. The cells were then incubated for 20 minutes on ice with mouse anti-human XCR1 antibodies (2H6, 5G7, or 11H2), mouse isotype control antibodies, IgG2a (eBioscience, #16-4724-85), or IgG2b (eBioscience, #16-4732-85) at various concentrations from 0 to 150 μg/mL. Next the cells were incubated for 30 minutes on ice with human XCL1-SSS-His(10) at a saturating concentration of 0.12 μg/mL. The cells were washed with the FACS buffer three times, and then incubated for 20 minutes on ice with anti-6×His tag antibody (BETHYL, #A190-114A, diluted at 1:100 in FACS buffer). […] Next the cells were once again washed three times with the FACS buffer, and then suspended in FACS buffer. The fluorescence intensity was measured using a FACSCanto II cell analyzer (BD Bioscience).

[8] = biological target: T1, human XCR1-EGFP; test: cell-based or functional assay; remark: listed apart in the source

| Binder | IC50 (nM), chemotaxis assay [1] [nM] | IC90 (nM), chemotaxis assay [1] [nM] | binding result [2] | binding result [3] | binding result [4] | binding result [5] | IC50 of growth suppression with saporin-conjugated Fab anti-mouse IgG secondary antibody [6] [nM] | concentration of complete inhibition of cell migration, chemotaxis assay [6] [µg/mL] | IC50 [7] [nM] | IC50 (nM), chemotaxis assay, Assay-1 [8] [nM] | IC50 (nM), chemotaxis assay, Assay-2 [8] [nM] | IC50 (nM), chemotaxis assay, Assay-3 [8] [nM] |
| --- | --- | --- | --- | --- | --- | --- | --- | --- | --- | --- | --- | --- |
| B1 | 0.99 | 6.32 | no binding (tested: 10 µg/mL) | no binding (tested: 10 µg/mL) | no binding (tested: 10 µg/mL) | no binding (tested: 10 µg/mL) | 0.155 | ~3 | 23.8 |  |  |  |
| B2 |  |  |  |  |  |  |  |  |  | 0.1 | 0.25 | 0.12 |
| B3 |  |  |  |  |  |  |  |  |  | 0.52 | 0.36 | 0.2 |
| B4 | 1.28 | 7.6 |  |  |  |  | 0.141 | ~3 | 37 |  |  |  |
| B5 | 0.63 | 2.52 |  |  |  |  | 0.017 | ~3 | 6.9 |  |  |  |
